Test results reported in patent US20210338833A1 (MIT, published 2021).

T1: 1D3 Mimotope (H1) SKLKGKSGPE
T1 peptide: SKLKGKSGPE

T2: FMC63 mimotope K-F5 QFQRICPWNCKELYWLPDQ
T2 peptide: QFQRICPWNCKELYWLPDQ

T3: FMC63 mimotope K-A3 RICPWNCKELPTPYMMFDM
T3 peptide: RICPWNCKELPTPYMMFDM

T4: FMC63 mimotope K-A5 PLSRICPWNCKELYWLPQR
T4 peptide: PLSRICPWNCKELYWLPQR

T5: FMC63 mimotope K-C2 RICPWNCKELPSPPRIFGNR
T5 peptide: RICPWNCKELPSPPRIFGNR

T6: FMC63 mimotope K-D11 AGTRICPWNCKELYWLPDE
T6 peptide: AGTRICPWNCKELYWLPDE

T7: FMC63 mimotope K-B5 PPPRICPWNCKELPLDWPW
T7 peptide: PPPRICPWNCKELPLDWPW

T8: FMC63 mimotope K-A10 AKRRERDYVGRICPWNCKELHPDTRHRIPV
T8 peptide: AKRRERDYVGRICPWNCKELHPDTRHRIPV

T9: FMC63 mimotope K-A11 RICPWNCKELYWLPDE
T9 peptide: RICPWNCKELYWLPDE

T10: FMC63 mimotope K-A1 PRKHSGRICPWNCKELDNPPFIFGNR (not fully specified)
T10 peptide: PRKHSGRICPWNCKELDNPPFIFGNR

T11: FMC63 Mimotope (A12) RRCPWSCKKQ
T11 peptide: RRCPWSCKKQ

T12: FMC63 Mimotope (H11) RICPWSCREL
T12 peptide: RICPWSCREL

T13: FMC63 Mimotope (H1) RVCPWSCMPI
T13 construct: Not the 1D3 mimotope that is also called H1
T13 peptide: RVCPWSCMPI

T14: FMC63 Mimotope (G9) RLCPWSCREL
T14 construct: Parent of the alanine scan
T14 peptide: RLCPWSCREL

T15: FMC63 Mimotope (F8) RLCPWDCREL
T15 peptide: RLCPWDCREL

T16: FMC63 Mimotope (E6) RLCPWSCVPI
T16 peptide: RLCPWSCVPI

T17: FMC63 Mimotope (G11) RLCPWNCREL
T17 peptide: RLCPWNCREL

T18: FMC63 Mimotope (C5) RMCPWSCYEL
T18 peptide: RMCPWSCYEL

T19: FMC63 Mimotope (F12) RICPWNCKEL
T19 construct: also called F12 mimotope
T19 peptide: RICPWNCKEL

T20: FMC63 Mimotope (H8) RICPWACVEL
T20 peptide: RICPWACVEL

T21: FMC63 Mimotope (C7) RLCPWACQEQ
T21 peptide: RLCPWACQEQ

B1: FMC63 Mimotope Mutant RLCPWSACREL (peptide)
peptide: RLCPWSACREL
notes: also called G9 with one alanine inserted between the cysteines
B2: anti-mCD19 (clone 1D3) IgG (antibody, V domains shown)
VH: EVQLQQSGAELVRPGTSVKLSCKVSGDTITFYYMHFVKQRPGQGLEWIGRIDPEDESTKYSEKFKNKATLTADTSSNTAYLKLSSLTSEDTATYFCIYGGYYFDYWGQGVMVTVSS
VL: DIQMTQSPASLSTSLGETVTIQCQASEDIYSGLAWYQQKPGKSPQLLIYGASDLQDGVPSRFSGSGSGTQYSLKITSMQTEDEGVYFCQQGLTYPRTFGGGTKLELK
notes: Anti-mouse CD19 IgG; biotinylated for sorting; also called 1D3 antibody; anti-mCD19 IgG
B3: FMC63 Mimotope Mutant RLCPWSAACREL (peptide)
peptide: RLCPWSAACREL
notes: also called G9 with two alanines inserted between the cysteines
B4: FMC63 scFv (scFv)
scFv: DIQMTQTTSSLSASLGDRVTISCRASQDISKYLNWYQQKPDGTVKLLIYHTSRLHSGVPSRFSGSGSGTDYSLTISNLEQEDIATYFCQQGNTLPYTFGGGTKLEITGGGGSGGGGSGGGGSEVKLQESGPGLVAPSQSLSVTCTVSGVSLPDYGVSWIRQPPRKGLEWLGVIWGSETTYYNSALKSRLTIIKDNSKSQVFLKMNSLQTDDTAIYYCAKHYYYGGSYAMDYWGQGTSVTVSS
modifications: biotinylated
notes: Whole scFv entry (VL-(G4S)3-VH); also called FMC63-scFv monomer; biotinylated FMC63 scFv
B5: 1D3 Mimotope (E2) IRVLMSRVFA (peptide)
peptide: IRVLMSRVFA
B6: 1D3 Mimotope Multimer H1 + C11 SKLKGKSGPEFHWFINVPPF (peptide)
peptide: SKLKGKSGPEFHWFINVPPF
notes: Chemically synthesized 20 amino acid fusion of two mimotopes; also called fusion mimotope
B7: 1D3 Mimotope (C11) FHWFINVPPF (peptide)
peptide: FHWFINVPPF
B8: 1D3 Mimotope Multimer H1 + E2 SKLKGKSGPEIRVLMSRVFA (peptide)
peptide: SKLKGKSGPEIRVLMSRVFA
notes: as for B6

What was measured:
FMC63 IgG = biological target: T22, FMC63 IgG; assay: flow cytometry of yeast-displayed mutant
T22 construct: Murine monoclonal antibody to human CD19; also called FMC63 IgG antibody; biotinylated FMC63 IgG
Method: Specifically, a representative mimotope, […] […] To generate mutations, two complementary oligos with the codon replaced at the desired site were denatured at 95° C. and annealed by slow cooling to 25° C. (decreasing by 0.5° C./second). The annealed oligos were treated with T4 PNK (T4 Polynucleotide Kinase) to add a terminal phosphate, and then ligated into digested pCT-CON2 vector. Positive clones having the correct oligo inserted were tested and transformed into competent EBY100 yeast cells.

[1] = biological target: T1, 1D3 Mimotope (H1) SKLKGKSGPE; assay: ELISA, OD(450nm) against the concentration of 1D3 IgG; label under the circle curve (H1)
[2] = biological target: B6; assay: ELISA, OD(450nm) against the concentration of 1D3 IgG; label beside the square curve (H1 + C11)
Method: (§1) Specifically, a library was generated using nested PCR and the primers in Table 1. […] For each round of enrichment, the top 0.5-1% of yeast were sorted. Following enrichment, isolated clones were subjected to Sanger sequencing. […] To further characterize the mimotope affinity, absolute binding affinity was measured by ELISA. Specifically, three mimotopes were selected for screening (Table 8). Of the selected sequences, two fusion mimotopes were chemically synthesized. Specifically, two mimotopes were fused to form a 20 amino acid peptide (Table 9).

[3] = biological target: B8; assay: ELISA, OD(450nm) against the concentration of 1D3 IgG; label beside the triangle curve (H1 + E2)
Method: as §1

[4] = biological target: T2, FMC63 mimotope K-F5 QFQRICPWNCKELYWLPDQ; assay: flow cytometry of yeast clones titrated with biotinylated FMC63 scFv and streptavidin-PE, MFI (geometric mean); no unit on the concentration axis
[5] = biological target: T3, FMC63 mimotope K-A3 RICPWNCKELPTPYMMFDM; assay: as above
[6] = biological target: T4, FMC63 mimotope K-A5 PLSRICPWNCKELYWLPQR; assay: as above
[7] = biological target: T5, FMC63 mimotope K-C2 RICPWNCKELPSPPRIFGNR; assay: as above
[8] = biological target: T6, FMC63 mimotope K-D11 AGTRICPWNCKELYWLPDE; assay: as above
[9] = biological target: T7, FMC63 mimotope K-B5 PPPRICPWNCKELPLDWPW; assay: as above
[10] = biological target: T8, FMC63 mimotope K-A10 …; assay: as above
[11] = biological target: T9, FMC63 mimotope K-A11 RICPWNCKELYWLPDE; assay: as above
[12] = biological target: T10, FMC63 mimotope K-A1 …; assay: as above
[13] = biological target: T11, FMC63 Mimotope (A12) RRCPWSCKKQ; assay: flow cytometry of yeast clones titrated with biotinylated FMC63 scFv monomer, MFI (geometric mean); axis without unit, nM by the legend paragraph 211
[14] = biological target: T12, FMC63 Mimotope (H11) RICPWSCREL; assay: as above
[15] = biological target: T13, FMC63 Mimotope (H1) RVCPWSCMPI; assay: as above
[16] = biological target: T14, FMC63 Mimotope (G9) RLCPWSCREL; assay: as above
[17] = biological target: T15, FMC63 Mimotope (F8) RLCPWDCREL; assay: as above
[18] = biological target: T16, FMC63 Mimotope (E6) RLCPWSCVPI; assay: as above
[19] = biological target: T17, FMC63 Mimotope (G11) RLCPWNCREL; assay: as above
[20] = biological target: T18, FMC63 Mimotope (C5) RMCPWSCYEL; assay: as above
[21] = biological target: T19, FMC63 Mimotope (F12) RICPWNCKEL; assay: as above
[22] = biological target: T20, FMC63 Mimotope (H8) RICPWACVEL; assay: as above
[23] = biological target: T21, FMC63 Mimotope (C7) RLCPWACQEQ; assay: as above
[24] = biological target: B2; assay: yeast display selection with 1D3 IgG
Method: as §1

[25] = biological target: B2; assay: ELISA with anti-mCD19 IgG (1D3)
Method: as §1

B1
binding result (FMC63 IgG): no binding (tested: 5 µM FMC63 IgG)

B2
Kd [1]: 190 nM | Kd [2]: 102 nM | Kd [3]: 6.7 nM

B3
binding result (FMC63 IgG): no binding (tested: 5 µM FMC63 IgG)

B4
binding result [4]: binds | binding result [5]: binds | binding result [6]: binds | binding result [7]: binds | binding result [8]: binds | binding result [9]: binds | binding result [10]: binds | binding result [11]: binds | binding result [12]: binds | binding result [13]: binds | binding result [14]: binds | binding result [15]: binds | binding result [16]: binds | binding result [17]: binds | binding result [18]: binds | binding result [19]: binds | binding result [20]: binds | binding result [21]: binds | binding result [22]: binds | binding result [23]: binds

B5
binding result [24]: binds

B6
binding result [25]: binds

B7
binding result [24]: binds

B8
binding result [25]: binds
